Source: publication PMC7538599

Biological target: GltPh, archaeal homolog of excitatory amino acid transporters from Pyrococcus horikoshii (Pyrococcus horikoshii) (UniProt O59010)
Experiment: high-speed atomic force microscopy (HS-AFM) imaging; purified GltPh reconstituted in DOPC/DOPE/DOPS 8:1:1 membranes, spread on mica, imaged in buffer solution in amplitude modulation mode; unlabeled protein

- stoichiometry N: 3
Substance: GltPh, archaeal homolog of excitatory amino acid transporters from Pyrococcus horikoshii (from UniProt O59010 1-425) (natural protein)
